Assay [1] addresses vesicular stomatitis virus nucleoprotein lacking its 21 N-terminal residues (N[change]), MBP tag removed (vesicular stomatitis virus) (UniProt P03521). Nature of the assay: SEC-MALS. On the technique in general: Size exclusion chromatography separates by hydrodynamic size, large species first.
Assay [2] has the same target. Put plainly: crystal structure.

As for “P60: the first 60 amino acids of VSV phosphoprotein P, a two-amino acid linker and a C-terminal His6-tag (from UniProt P03520 1-60) (peptide)”, the stoichiometry N (as a rule, a count of units in the complex or per binding partner) in assay [1] stood at 1.

For the substance “vesicular stomatitis virus nucleoprotein lacking its 21 N-terminal residues (N[change]), MBP tag removed (from UniProt P03521 22-422) (domain or fragment)”, the stoichiometry N in assay [2] was 10.

The values are drawn from article PMC3178552.
